Source: the supplement of paper PMC9732359
± gives the uncertainty stated by the source.

Experiment: protein stability index of a GFP-peptide fusion (yeast GPS) (PSI 1-4); higher = more stable; sorted into four equal gates, so the index is relative within each strain
Summary of the method: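 Plasmids in a pooled yeast library fused tiled 17-residue yeast protein peptides downstream of GFP and also expressed Cherry. Mid-log cultures grown without leucine were sorted into four equal gates by GFP/Cherry fluorescence ratio. Each gate's plasmids were PCR-amplified and Illumina-sequenced, and reads were matched to strains by barcodes. The protein stability index is derived by multiplying each gate's read frequency by its gate number and summing the results.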

Sequence | protein stability index (doa10∆) | protein stability index (pdr5∆) | protein stability index (san1∆) | protein stability index (ubr1∆)
FEFGNMKATSNTLEEFE [FAS2] | 3.18 ± 0.054 | 3.4 ± 0.08 | 3.13 ± 0.061 | 3.23 ± 0.058
TNSNNTPLQSQLNLNNL [PGD1] | 3.01 ± 0.071 | 3.01 ± 0.059 | 3 ± 0.043 | 3.05 ± 0.042
RKILKKTFKNPKYESLK [RPN5] | 2.87 ± 0.094 | 2.96 ± 0.07 | 3.18 ± 0.094 | 3.19 ± 0.062
DIIMNPHGFPSRMTVGK [RET1] | 2.67 ± 0.056 | 2.83 ± 0.076 | 2.79 ± 0.049 | 2.71 ± 0.065
SASHFEQYTKKINSWDQ [YJL041W/NSP1] | 2.8 ± 0.076 | 3.06 ± 0.061 | 2.69 ± 0.083 | 3.02 ± 0.052
QAISYLHKLQRMRLRAL [GRR1] | 1.77 ± 0.057 | 1.74 ± 0.053 | 1.8 ± 0.055 | 1.49 ± 0.028
FLLLAVNKYGLRADKLY [ISW2] | 3.05 ± 0.078 | 2.5 ± 0.075 | 2.62 ± 0.055 | 2.93 ± 0.059
ESKPFSSDALSKEKANF [SIR4] | 1.96 ± 0.068 | 1.59 ± 0.065 | 1.73 ± 0.089 | 1.39 ± 0.056
LKTNGKQNNKDFRTRYI [MTW1] | 2.75 ± 0.059 | 2.84 ± 0.065 | 2.52 ± 0.081 | 2.51 ± 0.059
VVVKNWGAETDELSMIM [RPS12] | 3.35 ± 0.14 | 3.4 ± 0.14 | 3.23 ± 0.087 | 3.15 ± 0.14
NRLEIKYHNDLIEKEIQ [SMC1] | 2.35 ± 0.18 | 2.51 ± 0.083 | – | 2.42 ± 0.13
STGLKNASDALKGRVVE [RPS1B] | 3.21 ± 0.15 | 3.04 ± 0.099 | 2.91 ± 0.12 | 2.67 ± 0.07
KNATDLQQAKLRESEIS [SMC3] | 3.17 ± 0.073 | 3.15 ± 0.071 | 3.11 ± 0.085 | 2.97 ± 0.068
SNSVFSPDGRNFQVEYA [PRE10] | 3.04 ± 0.057 | 2.91 ± 0.059 | 2.87 ± 0.049 | 2.79 ± 0.054
VRIDKALELDDTVVSRV [ECM29] | 2.92 ± 0.11 | 2.91 ± 0.15 | – | 3.13 ± 0.097
SSYEEFLERFDFYTRHH [ITC1] | 3.19 ± 0.13 | 3.1 ± 0.083 | 3.03 ± 0.073 | 3.1 ± 0.081
DIGKGAETTFLQDVIAL [RPC53] | 2.52 ± 0.073 | 2.31 ± 0.1 | 2.38 ± 0.11 | 2.71 ± 0.056
QGRDTSKLPDPERWLPL [SRP72] | 3.33 ± 0.16 | 2.86 ± 0.21 | 3.31 ± 0.13 | 2.93 ± 0.17
DDHSQVINPQQLLKGLS [DSN1] | 3.17 ± 0.1 | 2.98 ± 0.084 | 3.03 ± 0.057 | 3.01 ± 0.068
VEAQSHRLTLEDPVTVE [PRE6] | 3.23 ± 0.15 | 3.88 ± 0.25 | – | –
GELVLDIEVPDVNALKF [SNF12] | 3.06 ± 0.22 | 3.55 ± 0.12 | 2.77 ± 0.077 | 3.15 ± 0.11
SASKHEYSDNFPVSLSQ [SIR4] | 3 ± 0.045 | 2.71 ± 0.039 | 3.06 ± 0.04 | 3.041 ± 0.029
LEELAETFQDTFSGALG [FAS2] | 2.95 ± 0.065 | 3.06 ± 0.077 | 3.21 ± 0.05 | 3.31 ± 0.067
LPNIYPSTRCKLKLLRM [RPT2] | 1.33 ± 0.037 | 1.43 ± 0.049 | 1.37 ± 0.076 | 1.59 ± 0.048
ELSDKEIYTVEDRPPEY [ISW2] | 3.34 ± 0.13 | 3.45 ± 0.15 | 3.33 ± 0.17 | 3.42 ± 0.12
SRKRAKKMTKKAKRSNL [PRP8] | 2.94 ± 0.07 | 2.16 ± 0.069 | 2.11 ± 0.094 | 2.52 ± 0.082

Sequence | protein stability index (doa10∆) | protein stability index (pdr5∆) | protein stability index (san1∆) | protein stability index (ubr1∆)
KVPQQAAGKRISHIEKR [SMC1] | 3.04 ± 0.11 | 3.14 ± 0.12 | 2.97 ± 0.095 | 3.15 ± 0.12
SIKEHSTTMDGANDLGF [MED1] | 2.53 ± 0.14 | 2.8 ± 0.073 | 2.15 ± 0.28 | 2.86 ± 0.09
PTQTKGNDAKPAKVEDV [YLR335W/NUP2] | 3.21 ± 0.057 | 3.25 ± 0.053 | 3.27 ± 0.039 | 3.1 ± 0.047
NAASGSNSNVTNPSSIF [YOR098C/NUP1] | 2.83 ± 0.049 | 2.74 ± 0.047 | 2.3 ± 0.049 | 2.73 ± 0.049
QARIILNHILEKSTQLQ [YGR119C/NUP57] | 2.83 ± 0.12 | 3.09 ± 0.072 | 2.63 ± 0.12 | 2.79 ± 0.043
CIIFITFEFINIAFDAH [YML031W/NDC1] | 1.23 ± 0.043 | 1.44 ± 0.044 | 1.38 ± 0.085 | 1.32 ± 0.032
DSQDYILSINAIDYEPE [SMC1] | 3.25 ± 0.068 | 3.06 ± 0.058 | 3 ± 0.046 | 3.02 ± 0.038
SYFLKLLGNCYSLRLIN [SRB8] | 2.81 ± 0.065 | 2.75 ± 0.06 | 2.48 ± 0.061 | 2.96 ± 0.069
FRKKRKFELGRQPANTK [RPS8A] | 2.88 ± 0.063 | 3.12 ± 0.066 | 3.13 ± 0.082 | 3.16 ± 0.065
IDGKVIQAGKFDNKSTS [SNF2] | 1.36 ± 0.057 | 1.42 ± 0.064 | 1.9 ± 0.21 | 1.95 ± 0.089
INIDDLLYELTAFKATV [YJL039C/NUP192] | 2.58 ± 0.052 | 2.67 ± 0.055 | 2.41 ± 0.054 | 2.44 ± 0.043
RFKYAPGTIVLYAERVQ [RPS3] | 1.61 ± 0.072 | 1.65 ± 0.062 | 1.56 ± 0.1 | 1.84 ± 0.093
PTVKYNRKVRAGRGFTL [RPL13A] | 2.62 ± 0.059 | 2.87 ± 0.058 | 2.94 ± 0.045 | 2.78 ± 0.053
IPVIALTDLDSPSEFVD [RPS0A] | 2.68 ± 0.095 | 2.69 ± 0.091 | 2.74 ± 0.096 | 2.42 ± 0.06
DLKFKRHKNKHIQGFPT [DSN1] | 3.15 ± 0.13 | 3.38 ± 0.28 | 1.75 ± 0.12 | 2.98 ± 0.12
PVLNLDKLWTLIPEDKR [RPL28] | 1.54 ± 0.056 | 1.45 ± 0.058 | 2.04 ± 0.071 | 1.17 ± 0.036
KRFNIGADPNYRTYSER [RPR2] | 3.08 ± 0.15 | 3.4 ± 0.14 | 2.89 ± 0.28 | 3.35 ± 0.11
NIKSNDFSIRKTCAKSV [ECM29] | 2.55 ± 0.087 | 2.24 ± 0.1 | 2.27 ± 0.18 | 2.83 ± 0.15
GKGIKLSIAEERDRRRA [RPS4A] | 2.59 ± 0.12 | 2.87 ± 0.16 | 3.35 ± 0.072 | 3.23 ± 0.09
DKTLRLWDVATGETYQR [ASC1] | 3 ± 0.23 | 3.36 ± 0.16 | 2.18 ± 0.19 | 3.42 ± 0.091
TNIRRIIQDNISPRLVV [RRP46] | 1.58 ± 0.037 | 1.69 ± 0.041 | 1.75 ± 0.07 | 1.82 ± 0.03
KHLWDQKSLAALKKSRS [RPC17] | 2.75 ± 0.12 | 2.97 ± 0.072 | 2.92 ± 0.083 | 2.81 ± 0.07
RKLGLLGDKEDEKQSAK [MTW1] | 3.37 ± 0.083 | 3.41 ± 0.09 | 2.94 ± 0.1 | 3.28 ± 0.067
IPKPRTAGKTSVKSART [SNF2] | 3.38 ± 0.1 | 3.26 ± 0.069 | 2.89 ± 0.065 | 3.09 ± 0.048
AYLLLVQGGNAAPSAAD [RPP2B] | 1.84 ± 0.05 | 1.98 ± 0.038 | 1.96 ± 0.062 | 2.45 ± 0.061
TSANGIVQFTYGGDGLD [RPO31] | 2.68 ± 0.093 | 2.77 ± 0.092 | 2.24 ± 0.15 | 3.04 ± 0.064

Sequence | protein stability index (doa10∆) | protein stability index (pdr5∆) | protein stability index (san1∆) | protein stability index (ubr1∆)
TFDLTPEDAQLLLAANT [RPS0A] | 2.28 ± 0.054 | 1.88 ± 0.049 | 2.31 ± 0.088 | 2.45 ± 0.053
GTNPLSSDGAYTEQFQH [SSN2] | 3.23 ± 0.093 | 3.09 ± 0.075 | 2.96 ± 0.055 | 3.06 ± 0.062
LQRKDYTSIVQCCEFMT [YML103C/NUP188] | 1.48 ± 0.059 | 1.62 ± 0.048 | 2.05 ± 0.079 | 1.9 ± 0.044
ASISLPNHIPSVNPSNK [SWP82] | 2.99 ± 0.1 | 3.05 ± 0.069 | 3.01 ± 0.075 | 3.12 ± 0.054
GSPQMLANEERLSNEMH [RGR1] | 2.9 ± 0.074 | 2.95 ± 0.071 | 3.39 ± 0.051 | 2.93 ± 0.054
LSIRLTNQLKSLKGLQS [RPN8] | 1.48 ± 0.17 | 1.49 ± 0.16 | 2.62 ± 0.19 | 1.24 ± 0.079
QILTVDPKTSLRIVKPT [RPC82] | 3.07 ± 0.21 | 2.99 ± 0.19 | 3.09 ± 0.12 | –
ARGLTATGKKSRGINKG [RPL15A] | 3.57 ± 0.19 | 3.37 ± 0.15 | 3.3 ± 0.071 | 3.16 ± 0.068
IHGELKTYKEGINKNEE [SMC1] | 2.94 ± 0.075 | 3.09 ± 0.051 | 2.87 ± 0.055 | 3.01 ± 0.046
LRNYLTPNVREEKQKSY [PUP1] | 3.41 ± 0.21 | 2.88 ± 0.15 | 3.39 ± 0.085 | 3.27 ± 0.16
DGNNEIFTCQIMNLITN [RPN4] | 2.09 ± 0.083 | 2.62 ± 0.18 | 2.35 ± 0.2 | 2.35 ± 0.25
TVDLALFGSPPFILEYD [YMR129W/POM152] | 2.36 ± 0.044 | 2.49 ± 0.047 | 1.9 ± 0.087 | 2.7 ± 0.032
SAEYLQMSLEANVVDIT [YJR042W/NUP85] | 1.8 ± 0.064 | 2.19 ± 0.065 | 2.05 ± 0.14 | 2.38 ± 0.058
IAKPNTANAKHTSSNSR [SMB1] | 2.93 ± 0.069 | 2.73 ± 0.094 | 2.72 ± 0.089 | 2.87 ± 0.067
FNKSAELSRIENEVENI [YCS4] | 3.51 ± 0.17 | 3.4 ± 0.19 | 3.27 ± 0.06 | 3.39 ± 0.17
MELLTQMDGFDNLGQTK [RPT4] | 3.53 ± 0.09 | 3.56 ± 0.11 | 3.65 ± 0.081 | 3.44 ± 0.079
QITLTFISELCSIEPIA [YML103C/NUP188] | 1.27 ± 0.035 | 1.46 ± 0.052 | 1.48 ± 0.085 | 1.82 ± 0.055
FEKDLMAYFDENLNRNW [BRN1] | 2.93 ± 0.059 | 3.27 ± 0.063 | 3.14 ± 0.056 | 3.17 ± 0.057
LLNTDHTLDPSLLESGS [RPO21] | 2.93 ± 0.085 | 2.94 ± 0.099 | 2.99 ± 0.079 | 3.17 ± 0.059
ANPAGASQPEPTTNEPA [YJL041W/NSP1] | 2.82 ± 0.12 | 3 ± 0.11 | 2.92 ± 0.1 | 3.16 ± 0.095
LGQERATDLAGPANNPN [PRP8] | 2.94 ± 0.048 | 3.04 ± 0.068 | 2.95 ± 0.053 | 3.17 ± 0.057
FPSSETTSLNPIQSKVF [BRR2] | 2.2 ± 0.093 | 2.52 ± 0.082 | 1.79 ± 0.14 | 2.33 ± 0.11
VDIEYTRGRNIIMHKDV [RET1] | 2.44 ± 0.11 | 2.55 ± 0.13 | 2.92 ± 0.064 | 2.84 ± 0.1
MSVKPIDNYITNSVRLF [SRP21] | 1.94 ± 0.076 | 1.91 ± 0.06 | 1.56 ± 0.068 | 1.63 ± 0.079
CRNILGVTSLIKNLGLP [RPP1] | 1.81 ± 0.054 | 1.58 ± 0.051 | 1.23 ± 0.092 | 1.75 ± 0.045
PPPAPHNLHPQIGQVPL [SNF5] | 2.96 ± 0.059 | 2.94 ± 0.053 | 2.8 ± 0.045 | 3.01 ± 0.042
